The source of these data is paper PMC9896810.

Assay [1] has as its target T1, Src-phosphorylated C3G (pC3G), wild type (human) (UniProt Q13905).
T1 sequence (chain, phosphotyrosines (phosphorylated in vitro by Src; sites not stated)): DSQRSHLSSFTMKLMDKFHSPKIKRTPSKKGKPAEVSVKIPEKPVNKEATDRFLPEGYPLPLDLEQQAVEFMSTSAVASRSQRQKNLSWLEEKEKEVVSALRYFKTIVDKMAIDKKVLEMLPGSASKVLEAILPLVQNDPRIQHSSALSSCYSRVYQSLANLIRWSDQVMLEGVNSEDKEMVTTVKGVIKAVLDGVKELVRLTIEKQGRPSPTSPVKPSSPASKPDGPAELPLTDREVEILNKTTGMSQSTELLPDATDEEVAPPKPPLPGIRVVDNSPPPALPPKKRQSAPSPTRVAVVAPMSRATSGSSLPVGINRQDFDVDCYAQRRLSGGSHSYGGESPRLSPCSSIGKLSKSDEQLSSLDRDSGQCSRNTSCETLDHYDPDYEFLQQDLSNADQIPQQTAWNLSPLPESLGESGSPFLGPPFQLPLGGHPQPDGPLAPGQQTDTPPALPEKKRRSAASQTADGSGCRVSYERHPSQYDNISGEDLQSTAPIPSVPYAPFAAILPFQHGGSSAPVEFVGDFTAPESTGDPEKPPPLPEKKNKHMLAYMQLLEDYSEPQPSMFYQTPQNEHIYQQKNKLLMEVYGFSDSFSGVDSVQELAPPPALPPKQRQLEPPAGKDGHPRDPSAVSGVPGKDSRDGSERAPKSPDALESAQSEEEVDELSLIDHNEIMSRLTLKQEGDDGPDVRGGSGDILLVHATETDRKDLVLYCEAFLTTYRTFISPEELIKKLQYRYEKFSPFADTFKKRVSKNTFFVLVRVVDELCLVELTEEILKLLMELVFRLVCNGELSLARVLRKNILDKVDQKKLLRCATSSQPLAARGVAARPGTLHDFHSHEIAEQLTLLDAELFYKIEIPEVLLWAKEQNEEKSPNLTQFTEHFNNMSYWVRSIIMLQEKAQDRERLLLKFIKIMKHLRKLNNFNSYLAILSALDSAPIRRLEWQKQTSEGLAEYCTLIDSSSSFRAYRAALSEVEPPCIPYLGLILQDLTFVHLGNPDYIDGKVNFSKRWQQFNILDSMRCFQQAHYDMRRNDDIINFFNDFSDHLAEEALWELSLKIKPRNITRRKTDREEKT

Assay [2] deals with T2, C3G full-length wild type (human, isoform a, residues 4-1077) (human) (UniProt Q13905).
T2 sequence: T1 sequence (chain, phosphotyrosines (phosphorylated in vitro by Src; sites not stated))

A further assay has as its target C3G P1 P1 (Homo sapiens) (UniProt Q13905). As to conditions: cited from earlier work.
The target in assay [3] is the P1 (C3G-PAAA) and P2 (C3G-APAA) motifs. Put plainly: ITC; single-PRM mutants of C3G in the cell titrated with full-length CrkL or CrkL-SH3N; 25 °C; 1:1 model in SEDPHAT; N is the competent fraction of C3G.

One may read the Kd as the equilibrium constant for the complex coming apart. In general, stoichiometry N refers to a count of units in the complex or per binding partner.

Sequence of CrkL, full-length (human) (P46109 whole entry): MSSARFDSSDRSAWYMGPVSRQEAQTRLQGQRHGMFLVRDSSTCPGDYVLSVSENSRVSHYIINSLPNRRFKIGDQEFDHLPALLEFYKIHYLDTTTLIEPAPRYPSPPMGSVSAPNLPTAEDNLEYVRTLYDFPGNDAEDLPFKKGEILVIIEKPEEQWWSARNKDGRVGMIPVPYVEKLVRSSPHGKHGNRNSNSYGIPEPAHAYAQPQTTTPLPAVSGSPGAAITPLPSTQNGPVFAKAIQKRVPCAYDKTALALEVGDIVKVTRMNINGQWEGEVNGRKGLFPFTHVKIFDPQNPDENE
Sequence of CrkL (P46109 whole entry): as above

“CrkII-L-II chimera (from UniProt P46108-1 1-133; P46109 125-182; P46108-1 191-304)”: in assay [1], the AC50 of the dose-response activation of the GEF activity of pC3G (0.2 µM) on Rap1b:mant-dGDP was 1.6 µM and the kmax of the dose-response activation of the GEF activity of pC3G (0.2 µM) on Rap1b:mant-dGDP is 0.03 s^-1 µM^-1. In assay [2], this substance had an AC50 of the dose-response activation of the GEF activity of C3G (1 µM) on Rap1b:mant-dGDP of 18.7 µM and a kmax of the dose-response activation of the GEF activity of C3G (1 µM) on Rap1b:mant-dGDP of 7900 M⁻¹ s⁻¹.

As to CrkL (from UniProt P46109), the Kd with C3G P1 P1 (Homo sapiens) was 2.8 µM.

In turn, “CrkL, full-length (human) (from UniProt P46109 1-303) (natural protein)” gave a stoichiometry N in assay [3] of 0.8 to 0.9.

Regarding “CrkL-II-L chimera (from UniProt P46109 1-124; P46108-1 134-191; P46109 183-303)”, in assay [1], the AC50 of the dose-response activation of the GEF activity of pC3G (0.2 µM) on Rap1b:mant-dGDP stood at 2.3 µM and the kmax of the dose-response activation of the GEF activity of pC3G (0.2 µM) on Rap1b:mant-dGDP was determined as 0.0336 s^-1 µM^-1. In assay [2], this substance returned an AC50 of the dose-response activation of the GEF activity of C3G (1 µM) on Rap1b:mant-dGDP of 16.7 µM and a kmax of the dose-response activation of the GEF activity of C3G (1 µM) on Rap1b:mant-dGDP of 7900 M⁻¹ s⁻¹.
